Here are results for seven molecules from doi:10.1101/2025.09.18.675241 (bioRxiv, 2025).

Data set [1] concerns the target FAM171A2 ectodomain (K30-T315), Fc cleaved off (human) (UniProt A8MVW0). In words: SEC-SAXS. (Size exclusion chromatography separates by hydrodynamic size, large species first.)
For data set [2] the target is unchanged. In words: AUC.
The target is the same in data set [3]. In words: SEC-MALS.
The next data set concerns the target FAM171A2 Ecto-AP (human) (UniProt A8MVW0). Kind of data set: ELISA.
The data set “SEC-MALS” concerns the molecule itself. Kind of data set: SEC-MALS.
Data set [4] concerns the molecule itself. In words: AUC.
Data set [5] concerns the molecule itself. Kind of data set: AUC. The source holds these as a separate data set.
The data set “SEC” concerns the molecule itself. Kind of data set: SEC.
Another data set has as its target T1, FAM171A1 Ecto-AP (human, UniProt Q5VUB5 23-303).
T1 sequence: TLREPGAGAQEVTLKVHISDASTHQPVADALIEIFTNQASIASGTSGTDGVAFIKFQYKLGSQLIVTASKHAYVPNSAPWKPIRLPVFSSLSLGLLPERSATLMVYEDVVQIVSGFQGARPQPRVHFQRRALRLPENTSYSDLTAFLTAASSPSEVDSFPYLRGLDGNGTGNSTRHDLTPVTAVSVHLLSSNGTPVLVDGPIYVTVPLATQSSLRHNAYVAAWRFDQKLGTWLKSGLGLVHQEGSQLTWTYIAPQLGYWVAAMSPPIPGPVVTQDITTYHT
Kind of data set: ELISA.

As for “FAM171A2 ectodomain (K30-T315), Fc cleaved off (from UniProt A8MVW0 30-315) (domain or fragment)”, the stoichiometry N in [1], in data set [2] and in data set [3] was 3 throughout. For the same molecule, in [2], the percent of the mixture as trimer came to 75%.

Take “FAM171A2 Ecto-Fc (from UniProt A8MVW0 30-315) (Fc fusion)”: the Kd with FAM171A2 Ecto-AP (human) worked out at 389 nM.

B1: FAM171A1 ectodomain (T23-T303), Fc cleaved off (domain or fragment)
chain: TLREPGAGAQEVTLKVHISDASTHQPVADALIEIFTNQASIASGTSGTDGVAFIKFQYKLGSQLIVTASKHAYVPNSAPWKPIRLPVFSSLSLGLLPERSATLMVYEDVVQIVSGFQGARPQPRVHFQRRALRLPENTSYSDLTAFLTAASSPSEVDSFPYLRGLDGNGTGNSTRHDLTPVTAVSVHLLSSNGTPVLVDGPIYVTVPLATQSSLRHNAYVAAWRFDQKLGTWLKSGLGLVHQEGSQLTWTYIAPQLGYWVAAMSPPIPGPVVTQDITTYHT
modifications: four N-linked glycosylation sites occupied by Man5GlcNAc2 (from HEK293S GnTI- cells)
Turning to B1, the “stoichiometry N” value in the data set “SEC-MALS” was found to be 3; in the data set “AUC [4]”, 2.6 monomers; in the data set “AUC [5]”, 2.7 monomers.

B2: FAM171A1 ectodomain Y241S (domain or fragment)
chain: TLREPGAGAQEVTLKVHISDASTHQPVADALIEIFTNQASIASGTSGTDGVAFIKFQYKLGSQLIVTASKHAYVPNSAPWKPIRLPVFSSLSLGLLPERSATLMVYEDVVQIVSGFQGARPQPRVHFQRRALRLPENTSYSDLTAFLTAASSPSEVDSFPYLRGLDGNGTGNSTRHDLTPVTAVSVHLLSSNGTPVLVDGPIYVTVPLATQSSLRHNASVAAWRFDQKLGTWLKSGLGLVHQEGSQLTWTYIAPQLGYWVAAMSPPIPGPVVTQDITTYHT
modifications: introduced N-linked glycosylation site
Turning to B2, in “SEC”, the “stoichiometry N” value is 3.

B3: FAM171A1 ectodomain Y241S/L255N (domain or fragment)
chain: TLREPGAGAQEVTLKVHISDASTHQPVADALIEIFTNQASIASGTSGTDGVAFIKFQYKLGSQLIVTASKHAYVPNSAPWKPIRLPVFSSLSLGLLPERSATLMVYEDVVQIVSGFQGARPQPRVHFQRRALRLPENTSYSDLTAFLTAASSPSEVDSFPYLRGLDGNGTGNSTRHDLTPVTAVSVHLLSSNGTPVLVDGPIYVTVPLATQSSLRHNASVAAWRFDQKLGTWNKSGLGLVHQEGSQLTWTYIAPQLGYWVAAMSPPIPGPVVTQDITTYHT
modifications: two introduced N-linked glycosylation sites
As to B3, the “stoichiometry N” value in “SEC” was 3.

B4: FAM171A1 Ecto-Fc (Fc fusion)
chain: TLREPGAGAQEVTLKVHISDASTHQPVADALIEIFTNQASIASGTSGTDGVAFIKFQYKLGSQLIVTASKHAYVPNSAPWKPIRLPVFSSLSLGLLPERSATLMVYEDVVQIVSGFQGARPQPRVHFQRRALRLPENTSYSDLTAFLTAASSPSEVDSFPYLRGLDGNGTGNSTRHDLTPVTAVSVHLLSSNGTPVLVDGPIYVTVPLATQSSLRHNAYVAAWRFDQKLGTWLKSGLGLVHQEGSQLTWTYIAPQLGYWVAAMSPPIPGPVVTQDITTYHT
Consider B4, for which the Kd in the data set with FAM171A1 Ecto-AP came to 9 ± 2 nM.

B5: FAM171A1 ectodomain L255N (domain or fragment)
chain: TLREPGAGAQEVTLKVHISDASTHQPVADALIEIFTNQASIASGTSGTDGVAFIKFQYKLGSQLIVTASKHAYVPNSAPWKPIRLPVFSSLSLGLLPERSATLMVYEDVVQIVSGFQGARPQPRVHFQRRALRLPENTSYSDLTAFLTAASSPSEVDSFPYLRGLDGNGTGNSTRHDLTPVTAVSVHLLSSNGTPVLVDGPIYVTVPLATQSSLRHNAYVAAWRFDQKLGTWNKSGLGLVHQEGSQLTWTYIAPQLGYWVAAMSPPIPGPVVTQDITTYHT
modifications: introduced N-linked glycosylation site
Turning to B5, the “stoichiometry N” value in the data set “SEC” was determined as 3.

By stoichiometry N is commonly meant a count of units in the complex or per binding partner. What is called Kd is a measure of binding affinity in units of concentration. A high value points to lower affinity.
